Test results published in the supplement of paper PMC5998384.

What was measured:
HeLa Kyoto [1] = experiment: thermal stability score vs G1/S (z-score of summed log2 fold changes over temperatures); higher = more thermally stable than in G1/S
HeLa Kyoto [2] = experiment: melting temperature (median over replicates), in situ; higher = more thermally stable
HeLa Kyoto [3] = experiment: solubility in G1/S (NP-40 vs SDS abundance) (log2 ratio); higher = more soluble; settings: cell cycle stage: G1/S
HeLa Kyoto [4] = experiment: solubility change mitosis vs G1/S (difference of NP-40 vs SDS log2 ratios) (log2 ratio difference); higher = more soluble in mitosis
[5] = cell cycle stage: early G1 (4.5 h after nocodazole release)
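Throughout, for melting temperature (median over replicates), in situ: HeLa Kyoto cells synchronized by double thymidine or nocodazole block, proteins quantified by TMT10plex mass spectrometry, three independent biological replicates.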
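Throughout, for solubility change mitosis vs G1/S (difference of NP-40 vs SDS log2 ratios): synchronized HeLa Kyoto cells (double thymidine block for G1/S, nocodazole release for mitosis), protein amounts in NP-40 versus SDS lysates quantified by mass spectrometry, three biological replicates.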
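Throughout, for solubility in G1/S (NP-40 vs SDS abundance): HeLa Kyoto cells arrested at G1/S by double thymidine block, proteins quantified by TMT10plex mass spectrometry in mild NP-40 versus SDS extracts, three biological replicates.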
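Throughout, for thermal stability score vs G1/S (z-score of summed log2 fold changes over temperatures): synchronized HeLa Kyoto cells, proteins quantified by TMT10plex mass spectrometry, three biological replicates, mitosis taken 0.5 h after nocodazole release, G1/S directly after double thymidine block.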

Row | Sequence | thermal stability score (HeLa Kyoto [1]; [5]) | thermal stability score (HeLa Kyoto [1]; cell cycle stage: mitosis) | melting temperature (HeLa Kyoto [2]; cell cycle stage: G1/S) | melting temperature (HeLa Kyoto [2]; cell cycle stage: mitosis) | solubility in G1/S (log2) (HeLa Kyoto [3]) | solubility change mitosis (log2) (HeLa Kyoto [4])
1 | MGAFLDKPKTEKHNAHGAGNGLRYGLSSMQGWRVEMEDAHTAVVGIPHGLEDWSFFAVYDGHAGSRVANYCSTHLLEHITTNEDFRAAGKSGSALELSVENVKNGIRTGFLKIDEYMRNFSDLRNGMDRSGSTAVGVMISPKHIYFINCGDSRAVLYRNGQVCFSTQDHKPCNPREKERIQNAGGSVMIQRVNGSLAVSRALGDYDYKCVDGKGPTEQLVSPEPEVYEILRAEEDEFIILACDGIWDVMSNEELCEYVKSRLEVSDDLENVCNWVVDTCLHKGSRDNMSIVLVCFSNAPKVSDEAVKKDSELDKHLESRVEEIMEKSGEEGMPDLAHVMRILSAENIPNLPPGGGLAGKRNVIEAVYSRLNPHRESDGASDEAEESGSQGKLVEALRQMRINHRGNYRQLLEEMLTSYRLAKVEGEESPAEPAATATSSNSDAGNPVTMQESHTESESGLAELDSSNEDAGTKMSGEKI [PPM1B] | 0.54 | -0.803 | 52.9 °C | 52.6 °C | -0.164 | 0.0659
2 | MGCAEGKAVAAAAPTELQTKGKNGDGRRRSAKDHHPGKTLPENPAGFTSTATADSRALLQAYIDGHSVVIFSRSTCTRCTEVKKLFKSLCVPYFVLELDQTEDGRALEGTLSELAAETDLPVVFVKQRKIGGHGPTLKAYQEGRLQKLLKMNGPEDLPKSYDYDLIIIGGGSGGLAAAKEAAQYGKKVMVLDFVTPTPLGTRWGLGGTCVNVGCIPKKLMHQAALLGQALQDSRNYGWKVEETVKHDWDRMIEAVQNHIGSLNWGYRVALREKKVVYENAYGQFIGPHRIKATNNKGKEKIYSAERFLIATGERPRYLGIPGDKEYCISSDDLFSLPYCPGKTLVVGASYVALECAGFLAGIGLDVTVMVRSILLRGFDQDMANKIGEHMEEHGIKFIRQFVPIKVEQIEAGTPGRLRVVAQSTNSEEIIEGEYNTVMLAIGRDACTRKIGLETVGVKINEKTGKIPVTDEEQTNVPYIYAIGDILEDKVELTPVAIQAGRLLAQRLYAGSTVKCDYENVPTTVFTPLEYGACGLSEEKAVEKFGEENIEVYHSYFWPLEWTIPSRDNNKCYAKIICNTKDNERVVGFHVLGPNAGEVTQGFAAALKCGLTKKQLDSTIGIHPVCAEVFTTLSVTKRSGASILQAGCUG [TXNRD1] | 1.37 | -1.27 | 52 °C | 51.9 °C | 0.0191 | -0.101
3 | MGCAPSIHVSQSGVIYCRDSDESSSPRQTTSVSQGPAAPLPGLFVQTDAADAIPPSRASGPPSVARVRRARTELGSGSSAGSAAPAATTSRGRRRHCCSSAEAETQTCYTSVKQVSSAEVRIGPMRLTQDPIQVLLIFAKEDSQSDGFWWACDRAGYRCNIARTPESALECFLDKHHEIIVIDHRQTQNFDAEAVCRSIRATNPSEHTVILAVVSRVSDDHEEASVLPLLHAGFNRRFMENSSIIACYNELIQIEHGEVRSQFKLRACNSVFTALDHCHEAIEITSDDHVIQYVNPAFERMMGYHKGELLGKELADLPKSDKNRADLLDTINTCIKKGKEWQGVYYARRKSGDSIQQHVKITPVIGQGGKIRHFVSLKKLCCTTDNNKQIHKIHRDSGDNSQTEPHSFRYKNRRKESIDVKSISSRGSDAPSLQNRRYPSMARIHSMTIEAPITKVINIINAAQENSPVTVAEALDRVLEILRTTELYSPQLGTKDEDPHTSDLVGGLMTDGLRRLSGNEYVFTKNVHQSHSHLAMPITINDVPPCISQLLDNEESWDFNIFELEAITHKRPLVYLGLKVFSRFGVCEFLNCSETTLRAWFQVIEANYHSSNAYHNSTHAADVLHATAFFLGKERVKGSLDQLDEVAALIAATVHDVDHPGRTNSFLCNAGSELAVLYNDTAVLESHHTALAFQLTVKDTKCNIFKNIDRNHYRTLRQAIIDMVLATEMTKHFEHVNKFVNSINKPMAAEIEGSDCECNPAGKNFPENQILIKRMMIKCADVANPCRPLDLCIEWAGRISEEYFAQTDEEKRQGLPVVMPVFDRNTCSIPKSQISFIDYFITDMFDAWDAFAHLPALMQHLADNYKHWKTLDDLKCKSLRLPSDS [PDE8B] | 0.505 | 0.304 | 49 °C | 49.1 °C | -0.134 | -0.122
4 | MGCDGGTIPKRHELVKGPKKVEKVDKDAELVAQWNYCTLSQEILRRPIVACELGRLYNKDAVIEFLLDKSAEKALGKAASHIKSIKNVTELKLSDNPAWEGDKGNTKGDKHDDLQRARFICPVVGLEMNGRHRFCFLRCCGCVFSERALKEIKAEVCHTCGAAFQEDDVIMLNGTKEDVDVLKTRMEERRLRAKLEKKTKKPKAAESVSKPDVSEEAPGPSKVKTGKPEEASLDSREKKTNLAPKSTAMNESSSGKAGKPPCGATKRSIADSEESEAYKSLFTTHSSAKRSKEESAHWVTHTSYCF [RTFDC1] | 1.24 | 2.61 | 47.6 °C | 50.2 °C | 0.0863 | -0.0475
5 | MGCSAKARWAAGALGVAGLLCAVLGAVMIVMVPSLIKQQVLKNVRIDPSSLSFNMWKEIPIPFYLSVYFFDVMNPSEILKGEKPQVRERGPYVYREFRHKSNITFNNNDTVSFLEYRTFQFQPSKSHGSESDYIVMPNILVLGAAVMMENKPMTLKLIMTLAFTTLGERAFMNRTVGEIMWGYKDPLVNLINKYFPGMFPFKDKFGLFAELNNSDSGLFTVFTGVQNISRIHLVDKWNGLSKVDFWHSDQCNMINGTSGQMWPPFMTPESSLEFYSPEACRSMKLMYKESGVFEGIPTYRFVAPKTLFANGSIYPPNEGFCPCLESGIQNVSTCRFSAPLFLSHPHFLNADPVLAEAVTGLHPNQEAHSLFLDIHPVTGIPMNCSVKLQLSLYMKSVAGIGQTGKIEPVVLPLLWFAESGAMEGETLHTFYTQLVLMPKVMHYAQYVLLALGCVLLLVPVICQIRSQVGAGQRAARADSHSLACWGKGASDRTLWPTAAWSPPPAAVLRLCRSGSGHCWGLRSTLASFACRVATTLPVLEGLGPSLGGGTGS [SCARB1] | -1.41 | -1.54 | 56.6 °C | 63.1 °C | 0.27 | -0.0198
6 | MGCTVSAEDKAAAERSKMIDKNLREDGEKAAREVKLLLLGAGESGKSTIVKQMKIIHEDGYSEEECRQYRAVVYSNTIQSIMAIVKAMGNLQIDFADPSRADDARQLFALSCTAEEQGVLPDDLSGVIRRLWADHGVQACFGRSREYQLNDSAAYYLNDLERIAQSDYIPTQQDVLRTRVKTTGIVETHFTFKDLHFKMFDVGGQRSERKKWIHCFEGVTAIIFCVALSAYDLVLAEDEEMNRMHESMKLFDSICNNKWFTDTSIILFLNKKDLFEEKITHSPLTICFPEYTGANKYDEAASYIQSKFEDLNKRKDTKEIYTHFTCATDTKNVQFVFDAVTDVIIKNNLKDCGLF [GNAI2] | 0.395 | 0.061 | 53.5 °C | 54.2 °C | -0.568 | -0.242
7 | MGCWGRNRGRLLCMLALTFMFMVLEVVVSRVTSSLAMLSDSFHMLSDVLALVVALVAERFARRTHATQKNTFGWIRAEVMGALVNAIFLTGLCFAILLEAIERFIEPHEMQQPLVVLGVGVAGLLVNVLGLCLFHHHSGFSQDSGHGHSHGGHGHGHGLPKGPRVKSTRPGSSDINVAPGEQGPDQEETNTLVANTSNSNGLKLDPADPENPRSGDTVEVQVNGNLVREPDHMELEEDRAGQLNMRGVFLHVLGDALGSVIVVVNALVFYFSWKGCSEGDFCVNPCFPDPCKAFVEIINSTHASVYEAGPCWVLYLDPTLCVVMVCILLYTTYPLLKESALILLQTVPKQIDIRNLIKELRNVEGVEEVHELHVWQLAGSRIIATAHIKCEDPTSYMEVAKTIKDVFHNHGIHATTIQPEFASVGSKSSVVPCELACRTQCALKQCCGTLPQAPSGKDAEKTPAVSISCLELSNNLEKKPRRTKAENIPAVVIEIKNMPNKQPESSL [SLC30A1] | -2.04 | -1.95 | 58.4 °C | 59.4 °C | -0.0235 | -0.0896
8 | MGDAPSPEEKLHLITRNLQEVLGEEKLKEILKERELKIYWGTATTGKPHVAYFVPMSKIADFLKAGCEVTILFADLHAYLDNMKAPWELLELRVSYYENVIKAMLESIGVPLEKLKFIKGTDYQLSKEYTLDVYRLSSVVTQHDSKKAGAEVVKQVEHPLLSGLLYPGLQALDEEYLKVDAQFGGIDQRKIFTFAEKYLPALGYSKRVHLMNPMVPGLTGSKMSSSEEESKIDLLDRKEDVKKKLKKAFCEPGNVENNGVLSFIKHVLFPLKSEFVILRDEKWGGNKTYTAYVDLEKDFAAEVVHPGDLKNSVEVALNKLLDPIREKFNTPALKKLASAAYPDPSKQKPMAKGPAKNSEPEEVIPSRLDIRVGKIITVEKHPDADSLYVEKIDVGEAEPRTVVSGLVQFVPKEELQDRLVVVLCNLKPQKMRGVESQGMLLCASIEGINRQVEPLDPPAGSAPGEHVFVKGYEKGQPDEELKPKKKVFEKLQADFKISEECIAQWKQTNFMTKLGSISCKSLKGGNIS [YARS] | 0.25 | 2.33 | 49.3 °C | 49.4 °C | 0.259 | -0.092
